The source of these data is patent US20230080534A1 (SHANGHAI BIOTROY BIOTECHNIQUE, published 2023).

Changes are numbered by the printed parent chain. No end group written: not given here.

The target of assay [1] is T1, human CD27 (HA-tagged, expressed in HEK293 cells) (human, UniProt P26842 20-260, limits assumed).
T1 construct: Plasmid printed as 'pcDNA3-HA-CD2'; not shown: HA tag
T1 sequence (looked up): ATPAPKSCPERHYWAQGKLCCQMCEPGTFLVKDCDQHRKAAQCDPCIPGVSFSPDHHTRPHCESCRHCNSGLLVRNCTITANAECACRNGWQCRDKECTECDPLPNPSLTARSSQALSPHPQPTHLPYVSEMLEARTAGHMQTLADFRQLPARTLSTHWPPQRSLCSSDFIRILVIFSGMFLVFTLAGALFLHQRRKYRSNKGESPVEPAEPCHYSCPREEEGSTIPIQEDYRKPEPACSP
Description: co-immunoprecipitation, HEK293 co-transfection. As to the method:
In co-immunoprecipitation experiment, cells were lysed in IP buffer (Thermo Scientific) and Roche complete protease inhibitor for 10 minutes, followed by the addition of benzonase (sigma) for 25 minutes at room temperature. The lysate was then centrifuged at 15,000 rpm at 4° C. to remove the precipitate. The supernatant was then incubated with primary antibody slowly rotated overnight at 4° C., followed by the addition of protein A or protein G dynabeads and incubated at 4° C. for 2 hours, washed for 4 times in PBST (PBS with 0.01% Tween 20), eluted with 50 mM DTT in SDS sample buffer for 10 minutes at 100° C., separated with SDS, and immunoblotted as previously described.
To further confirm which part of SEMG-2 binds to CD27, fragments of SEMG2 protein were designed. The amino acid sequence of full-length SEMG2 protein (SEQ ID NO:1) was divided into 6 segments of sequences, fused with GFP and named as SEMG2-P1, SEMG2-P2, SEMG2-P3, SEMG2-P4, SEMG2-P5 and SEMG2-P6 (See Table 1 for specific sequences, with corresponding abbreviation as P1-P6 respectively). Plasmids expressing these amino acid sequences were co-transfected with CD27 into HEK293 cells, and co-immunoprecipitation experiments were performed to identify the main fragment of SEMG2 that binds to CD27.

The target in assay [2] is T2, human SEMG2 full-length protein (human, UniProt Q02383 24-582, limits assumed).
T2 construct: also called SEMG2 protein; semenogelin 2
T2 sequence: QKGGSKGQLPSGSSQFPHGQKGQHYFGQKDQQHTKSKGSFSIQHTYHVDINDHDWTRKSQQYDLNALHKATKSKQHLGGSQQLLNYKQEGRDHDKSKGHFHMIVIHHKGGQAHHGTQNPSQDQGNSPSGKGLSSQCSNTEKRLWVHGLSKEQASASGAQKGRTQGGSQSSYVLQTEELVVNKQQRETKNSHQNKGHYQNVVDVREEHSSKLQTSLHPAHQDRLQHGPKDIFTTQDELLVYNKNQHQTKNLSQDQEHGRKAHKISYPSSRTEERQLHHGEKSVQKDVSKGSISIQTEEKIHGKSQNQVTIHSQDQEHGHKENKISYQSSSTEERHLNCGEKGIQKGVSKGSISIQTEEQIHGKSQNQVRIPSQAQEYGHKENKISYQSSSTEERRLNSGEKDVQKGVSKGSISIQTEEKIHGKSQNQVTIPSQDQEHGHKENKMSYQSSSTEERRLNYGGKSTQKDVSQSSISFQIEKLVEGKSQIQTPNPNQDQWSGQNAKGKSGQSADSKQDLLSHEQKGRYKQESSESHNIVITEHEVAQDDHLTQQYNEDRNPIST
Nature of the assay: ELISA (FIG. 21B-D).

Assay [3] has as its target T3, BSA-conjugated human SEMG2 (497-509) polypeptide (human, also: coupled to BSA, site not given here).
T3 peptide: QIEKLVEGKSQIQ
Description: ELISA (FIG. 21B-D). A general note: In an ELISA, binding on a coated surface is turned into a signal by an enzyme label.

The target of assay [4] is T2, human SEMG2 full-length protein. Nature of the assay: ELISA on SEMG2; the EC50 table prints no unit, the axis is log (antibody concentration, nM).
The target in assay [5] is T3, BSA-conjugated human SEMG2 (497-509) …. Nature of the assay: ELISA on BSA-S2 (497-509); curve without upper plateau; the EC50 table prints no unit, the axis is log (antibody concentration, nM).
In assay [6] the target is T2, human SEMG2 full-length protein. Nature of the assay: biolayer interferometry (ForteBio Blitz or Gator). Here is the method: The equilibrium dissociation constant (KD) of the antibody of the present invention binding to human SEMG2 was determined by biolayer interferometry (ForteBio Bltz or Gator instrument). […] 100 μl of SD buffer, antibody and SEMG2 were added to a 96-well black polystyrene half area microplate, respectively. Select the sensor location based on the sample location layout. KD values were analyzed using molecular interaction analysis software. In the experiments of the assays, the affinity constants of murine monoclonal antibodies and human antibodies H88-67, H88-93 and H88-96 are shown in Table 8, and the affinity and dissociation curves of SEMG2 and corresponding proteins are shown in FIG. 25.
(BLI is a label-free optical method that tracks binding on a fibre tip over time.)

The target is the same in assay [7]. Description: ELISA, immobilized antigen SEMG2 (1-582). The source says:
(§1) To clearly distinguish the binding epitopes of blocking antibodies (i.e., antibodies that can inhibit the binding between SEMG2 and CD27) and non-blocking antibodies, a corresponding ELISA analysis method was established. […] Anti-mouse or anti-rabbit secondary antibodies were then used to detect the corresponding bound antibodies.

The target in assay [8] is T4, AIEKLVEGKSQIQ (not fully specified).
T4 construct: member of the group m41; the text speaks of glycine substitution, the sheet prints alanine
T4 peptide: AIEKLVEGKSQIQ
Description: ELISA, immobilized peptide AIEKLVEGKSQIQ
The source says:
(§2) FIG. 20 depicts the value detected by ELISA, i.e., OD₄₅₀ absorbance. […] This experiment is used to determine the precise amino acid epitopes that different monoclonal antibodies bind to, and the relative importance of each amino acid to the binding antibody.

Assay [9] addresses T5, QAEKLVEGKSQIQ (not fully specified).
T5 construct: member of the group m41; the text speaks of glycine substitution, the sheet prints alanine
T5 peptide: QAEKLVEGKSQIQ
Nature of the assay: ELISA, immobilized peptide QAEKLVEGKSQIQ
Excerpt: as §2

In assay [10] the target is T6, QIAKLVEGKSQIQ (not fully specified).
T6 construct: member of the group m41; the text speaks of glycine substitution, the sheet prints alanine
T6 peptide: QIAKLVEGKSQIQ
Nature of the assay: ELISA, immobilized peptide QIAKLVEGKSQIQ

The target in assay [11] is T7, QIEALVEGKSQIQ (not fully specified).
T7 construct: member of the group m41; the text speaks of glycine substitution, the sheet prints alanine
T7 peptide: QIEALVEGKSQIQ
Description: ELISA, immobilized peptide QIEALVEGKSQIQ
Excerpt: as §2

The target of assay [12] is T8, QIEKAVEGKSQIQ (not fully specified).
T8 construct: alanine at this position
T8 peptide: QIEKAVEGKSQIQ
Nature of the assay: ELISA, immobilized peptide QIEKAVEGKSQIQ
Excerpt: as §2

For assay [13], the target named is T9, QIEKLAEGKSQIQ (not fully specified).
T9 construct: member of the group m41; the text speaks of glycine substitution, the sheet prints alanine
T9 peptide: QIEKLAEGKSQIQ
Nature of the assay: ELISA, immobilized peptide QIEKLAEGKSQIQ
Excerpt: as §2

Assay [14] concerns the target T10, QIEKLVAGKSQIQ (not fully specified).
T10 construct: member of the group m41; the text speaks of glycine substitution, the sheet prints alanine
T10 peptide: QIEKLVAGKSQIQ
Nature of the assay: ELISA, immobilized peptide QIEKLVAGKSQIQ
Excerpt: as §2
To further precisely define the exact epitopes (specific to the level of single amino acid) to which blocking antibodies MM02, MM05, MM07, MM08, MM13, MM14 bind, corresponding ELISA analysis method was established. […] Anti-mouse or anti-rabbit secondary antibodies were then used to detect the corresponding bound antibodies.

Assay [15] addresses T11, QIEKLVEAKSQIQ
T11 construct: member of the group m41; position 504 is glycine in SEMG2 and the sheet prints alanine there
T11 peptide: QIEKLVEAKSQIQ
Description: ELISA, immobilized peptide QIEKLVEAKSQIQ
Excerpt: as §2

Assay [16] has as its target T12, QIEKLVEGASQIQ (not fully specified).
T12 construct: member of the group m41; the text speaks of glycine substitution, the sheet prints alanine
T12 peptide: QIEKLVEGASQIQ
Nature of the assay: ELISA, immobilized peptide QIEKLVEGASQIQ
Excerpt: as §2

Assay [17] concerns the target T13, QIEKLVEGKAQIQ (not fully specified).
T13 construct: alanine at this position
T13 peptide: QIEKLVEGKAQIQ
Nature of the assay: ELISA, immobilized peptide QIEKLVEGKAQIQ
Excerpt: as §2

Assay [18] concerns the target T14, QIEKLVEGKSAIQ (not fully specified).
T14 construct: alanine at this position
T14 peptide: QIEKLVEGKSAIQ
Nature of the assay: ELISA, immobilized peptide QIEKLVEGKSAIQ
Excerpt: as §2

Assay [19] addresses T15, QIEKLVEGKSQAQ (not fully specified).
T15 construct: member of the group m41; the text speaks of glycine substitution, the sheet prints alanine
T15 peptide: QIEKLVEGKSQAQ
Description: ELISA, immobilized peptide QIEKLVEGKSQAQ
Excerpt: as §2

For assay [20], the target named is T16, QIEKLVEGKSQIA (not fully specified).
T16 construct: alanine at this position
T16 peptide: QIEKLVEGKSQIA
Description: ELISA, immobilized peptide QIEKLVEGKSQIA
Excerpt: as §2

Assay [21] addresses T17, SEMG2(497-509) polypeptide QIEKLVEGKSQIQ (human).
T17 peptide: QIEKLVEGKSQIQ
Description: ELISA, immobilized peptide QIEKLVEGKSQIQ
Excerpt: as §2

Assay [22] concerns the target T18, SEMG2(354-403) fragment (human).
T18 peptide: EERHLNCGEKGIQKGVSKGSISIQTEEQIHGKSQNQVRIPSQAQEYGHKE
Nature of the assay: ELISA, immobilized antigen SEMG2 (354-403).
Excerpt: as §1

Assay [23] addresses T19, SEMG2(442-453) fragment (human).
T19 peptide: IHGKSQNQVTIP
Nature of the assay: ELISA, immobilized antigen SEMG2 (442-453).
Excerpt: as §1

Assay [24] addresses T17, SEMG2(497-509) polypeptide QIEKLVEGKSQIQ
Nature of the assay: ELISA, immobilized antigen SEMG2 (497-509).
Excerpt: as §1

For assay [25], the target named is T20, SEMG2(563-574) fragment (human).
T20 peptide: VAQDDHLTQQYN
Description: ELISA, immobilized antigen SEMG2 (563-574).
Excerpt: as §1

In assay [26] the target is T2, human SEMG2 full-length protein. Nature of the assay: ELISA, plate coated with SEMG2 protein, anti-mouse secondary antibody; the EC50 table prints no unit, the axis is log (antibody concentration, nM).

B1: SEMG2-P1 fused with GFP (other)
chain: GSFSIQHTYHVDINDHDWTRKSQQYDLNALHKATKSKQHLGGSQQLLNYKQEGRDHDKSKGHFHMIVIHHKGGQAHHGT
notes: not shown: GFP fusion partner
As for B1, the binding result in [1] was “no binding”.

B2: 67-3-67-6 (antibody, V domains shown)
VH: QVQLLESGGGVVQPGRSLRLSCAASGFTFSSYAMHWVRQASGKGLEWVAVISYDGSNKYYADSVKGRFTISRDNSKNTLYLQMNSLRAEDTAVYYCARMDNHGSPDYWGQGTLVTVSS
VL: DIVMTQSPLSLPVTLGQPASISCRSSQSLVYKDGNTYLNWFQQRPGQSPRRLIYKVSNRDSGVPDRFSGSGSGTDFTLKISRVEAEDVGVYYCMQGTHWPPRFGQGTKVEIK
In general, EC50 refers to the concentration at which the effect is half-maximal. As to B2, the “fold higher affinity than the parent antibody (H88-67)” value in assay [2] and in assay [3] was more than 10 fold throughout. Also, the results for the EC50 in [4] and in [5] were 0.313 nM and 12.6 nM, respectively.

B3: 67-6-67-6 (antibody, V domains shown)
VH: B2 VH with N101G
VL: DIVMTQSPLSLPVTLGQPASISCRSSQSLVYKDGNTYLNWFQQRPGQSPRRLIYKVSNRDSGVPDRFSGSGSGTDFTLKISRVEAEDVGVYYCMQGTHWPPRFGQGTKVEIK
For B3, the “fold higher affinity than the parent antibody (H88-67)” value in assay [2] and in [3] was more than 10 fold in each case. Moreover, the EC50 in assay [4] was 0.619 nM; in [5], 38.5 nM.

B4: MM14 (antibody, IgG2b, V domains shown)
VH: QVQLKESGPGLVAPSQSLSITCTVSGFSLTSYAVSWVRQPPGKGLEWLGIIWGDGSTNYHSALISRLSISKDNSKSQVFLKLNSLQTDDTATYYCAKQERFSDGYYDGFAYWGQGTLVTVSA
VL: QIVLTQSPAIMSASPGEKVTITCSASSSVSYMHWFQQKPGTSPKLWIYSTSNLASGVPARFSGSGSGTSYSLTISRMEAEDAATYYCQQRSSYPFTFGSGTKLEIKR
What is called Kd is the constant that tells how readily two partners part at equilibrium. In assay [6], B4 showed a Kd of 1.44 nM. The A450 absorbance in [7] was 1.12; in assay [22] it was 0.003; in assay [23], 0.007; in assay [24], 1.11. Also, the OD450 absorbance amounted to 0.813 in assay [8]; 0.54 in assay [9]; 0.776 in assay [10]; 0.777 in assay [11]; 0.161 in assay [12]; 0.804 in assay [13]. The OD450 absorbance in assay [14] was determined as 0.766; in assay [15] it was 0.47; in [16], 0.621; in [17], 0.022; in assay [18] it was 1.18; in assay [19] it was 0.588. For the same molecule, the OD450 absorbance amounted to 1.23 in assay [20] and 1.17 in assay [21]. In addition, the binding result in assay [22], in [23] and in assay [25] was “no binding” throughout. This molecule also had a half-maximal effective concentration (EC50) in assay [26] of 0.507 nM.

B5: SEMG2-P4 fused with GFP (other)
chain: EYGHKENKISYQSSSTEERRLNSGEKDVQKGVSKGSISIQTEEKIHGKSQNQVTIPSQDQEHGHKENKMSYQSSSTEERRLNYGGKSTQKDVSQSSIS
notes: not shown: GFP fusion partner
B5: the binding result in assay [1] is reported as “no binding”.

B6: SEMG2-P2 fused with GFP (other)
chain: QNPSQDQGNSPSGKGLSSQCSNTEKRLWVHGLSKEQASASGAQKGRTQGGSQSSYVLQTEELVVNKQQRETKNSHQNKGHYQNVVDVREEHSSKLQTSLHPAHQDRLQHGPKDIFTTQDELLVYNKNQHQTKNLSQDQEHGR
notes: not shown: GFP fusion partner
As to B6, the binding result in [1] is given as “no binding”.

B7: SEMG2-P3 fused with GFP (other)
chain: KAHKISYPSSRTEERQLHHGEKSVQKDVSKGSISIQTEEKIHGKSQNQVTIHSQDQEHGHKENKISYQSSSTEERHLNCGEKGIQKGVSKGSISIQTEEQIHGKSQNQVRIPSQAQ
notes: not shown: GFP fusion partner
B7: the binding result in [1] was “no binding”.
